Measured values reported in a protein production outcome set (Wang et al. 2014).

Experiment: label from the status in PepcDB records

Sequence | protein production
NTMRSFILRARSAPTDSQRLLDEIGGKCHTEILAHCMMNSLFTAQSHREDVVIHLVLESTRDYSRTITVEANEISDVGGFHEAALIALLVKALDASVGMGKEQTRVVQPGLTVRTISFEALLGELAEHHSLYMMDKKGDSIRDIKIGPNPCFILTDHIPMPKKSGNSMKRLGVEKISLGPKMLFASQCVTLIHNEIDHQEA | failed
MNRTLAYKLGAIALLILLLLIPLLMIDGLIRDRQEVRDGVLQDIARSSSYSQRLTGPLLVVPYRRTVREWVTEEKTEKRVLQEREQRGELYFLPDRFALDGQMRTELRYRGIYQARLYHVDNKVAGYFQVPAHYGIEEDLEDYQFETPFLAMGISDIRGIENALRLSLNGASVDFEPGSRVGLLGSGVHAPLQGVDGRQAQRLEYAFDLSLLGSERLDIVPVGRDSQVILKADWPHPSFGGEFLPSEREITAQGFTARWQTSFFATNMEEALRSCVEEQRCDGFQARAFGVGLVDPVDQYLKADRAIKYALLFITLTFAGFFLFEVLKRLAVHPVQYALVGLALAFFYLLLLSLAEHVGFELAYLVSAGACVGLIGFYLCFVLRSVARGLGFSVGLAGLYGLLYGLLSAEDYALLMGSLLLFAVLAAVMVLTRRLDWYGVGRKDFPAVPARA | failed
MAYDLWYWDGIPGRGEFVRLALEAGKIPYRDRAREPGEDMLADMRRRRDTAPFAPPYLVADGMTIAQTANILLFLGVEHGLAPPDRAGRLWVNQLQLTIADLTAEAHDVHHPVAAGLYYEDQQDVALRRAADFRETRMPKFMQYFEQALDRPGGWLTDMGRWSYADLSLYHVVEGLLHAFPRRMRTLMHRYPRLMTLHARVAELPELRGYLASDRRLPFGDGIFRHYPELDGA | failed
MQLSIEEVKKLDSNSYQIIDIRSEEEVAHGAIKGALNIQAEEIESDERVPHDKKLVIVCSRGKTSVDVAEYLTEKGFDAASLKGGYISWLLDAMKEDEVAERDIKADVEQSIRKKFKKSIWRKFTKAINTYELVKPGDKIAVCISGGKDSMLMAKLFQELKHHNKFDFDVKFLVMDPGYNEANRHVIEENCRNLGIPATIFESDIFDAVYDIEKSPCYLCARMRRGHLYAFAKELGCNKIALGHHYDDVIETILMGMLYGAQVQTMMPKLHSTNFEGMELIRPLYLVREDDIKAWRDYNGLHFIQCACKFTDTCTTCNNEENRSKRVEIKQLIANLKKVNPFVEANIFKSVENVNLATVVAYKKDGIKHSFLDHYDE | failed
MSLRKQSWLWMLLVILSETSATSTLKMFDNSQGMTKAALLAIIILLYCVCYYSLSKAVRHLPVGLAYATWSGTGILLVSTLSIIFYGQHPDIPAIVGMIVIATGIMIMNLFSKMGVDEQPEKLDSSNQSQPLETKIIH | failed
MQGFLRSLFFGVKKIPKPFAPLVEKGVLKEALELKKDRYFLKEGFDIGKVEKVKDKAFFISLAKNYPKDPLIKNLPPSFKTDALILCQIECSKKRPIAFFKAALLNADHTMIAYLAKKNNQIVAIPFKEPFKKPVSLKHSQKSLLELPRHCVVKIDTKKREISEILGALEDPLIDENLSLSLFDRVKDFSKDCLNLAQHYAQLKASDFKDRINYSHIPFITIDPKDAKDFDDAIFYDQEKRVLFVAVADVSEFVPKHSSLDKEARVRGFSVYFPNSVYPMLPLSLSQGACSLKAFEKRLALVYEIPLDNLKNARLSQGVIEVRANCTYEEINHFLSANQSSLDKDLQQSLLGFLEMALKLKKERLKKGFNFNSFENKLYLNKEGRIEKIETEKESDAHTLIEEAMLLANQSSARLLDEHFHNKGIYRTHKEPSLEQQKRLYDKLFDYEIVRPKNMGFFPFLEHALKIAKEKSIEREVSRLIIKSQNLALYSPLQESHFGLGFASYTHFTSPIRRYSDLALHRLLKELLFYQAKGCSYLLEETPELCAELNALQKKAALIERDFIKRKFARLALELLEKEFLGVVLEVKDWVVVGLKEFIGLKVLVKTNKVFKPLEKVRVTITHADLILGQVRGEITERIKEHVS | failed
MQTACQAVQHQRGRRQYNKLRNLLKDARHDCILFANEFQQCCYLPRERGESMEKWQTRSIYNAAVWYYHHCQDRMPIVMVTEDEEAIQQYGSETEGVFVITFKNYLDNFWPDLKAAHELCDSILQSRRERENESQESHGKEYPEHLPLEVLEAGIKSGRYIQGILNVNKHRAQIEAFVRLQGASSKDSDLVSDILIHGMKARNRSIHGDVVVVELLPKNEWKGRTVALCENDCDDKASGESPSEPMPTGRVVGILQKNWRDYVVTFPSKEEVQSQGKNAQKILVTPWDYRIPKIRISTQQAETLQDFRVVVRIDSWESTSVYPNGHFVRVLGRIGDLEGEIATILVENSISVIPFSEAQMCEMPVNTPESPWKVSPEEEQKRKDLRKSHLVFSIDPKGCEDVDDTLSVRTLNNGNLELGVHIADVTHFVAPNSYIDIEARTRATTYYLADRRYDMLPSVLSADLCSLLGGVDRYAVSIMWELDKASYEIKKVWYGRTIIRSAYKLFYEAAQELLDGNLSVVDDIPEFKDLDEKSRQAKLEELVWAIGKLTDIARHVRAKRDGCGALELEGVEVCVQLDDKKNIHDLIPKQPLEVHETVAECMILANHWVAKKIWESFPHQALLRQHPPPHQEFFSELRECAKAKGFFIDTRSNKTLADSLDNANDPHDPIVNRLLRSMATQAMSNALYFSTGSCAEEEFHHYGLALDKYTHFTSPIRRYSDIVVHRLLMAAISKDKKMEIKGNLFSNKDLEELCRHINNRNQAAQHSQKQSTELFQCMYFKDKDPATEERCISDGVIYSIRTNGVLLFIPRFGIKGAAYLKNKDGLVISCGPDSCSEWKPGSLQRFQNKITSTTTDGESVTFHLFDHVTVRISIQASRCHSDTIRLEIISNKPYKIPNTELIHQSSPLLKSELVKEVTKSVEEAQLAQEVKVNIIQEEYQEYRQTKGRSLYTLLEEIRDLALLDVSNNYGI | failed
MSNKGSSDLRLLLSTLVISGLVAGLAYWQLSQHWTRSPDQNAGSPLHTPTSKWQKIALAMTLRGHEDEVNAIALSPDGNFLVSAGDDRRLYFWNLATGTALGQAKGHTDWIYALVMTPDGQTVISGSKDKTIKLWGVGDRQLQATLSGHQDFVNGLALSPDGRTLASASYDHTVKLWNVPSRQEITTLKANEGIMLSVAISRDGRFLATGGVDKLIRIWDLPSRRLLRTLEGHTSDVNSLAFTPDSSQLVSGSDKDGIKLWNLTTGELQQQFGTEGGQVFSVAVSPDGSTLASGHGDQTVKLWSLSGQLLRNLKGHSGAVYSVVFGQDQLISASEDKTIKVWRLFPETP | failed
WSLQPLADMSAAEFRDWQVLLENRTGVVLNEQRRTFLQASLTARMRELGIGDYHSYYRQVTDGPRGAVEWATLLDRLTVQETRFFRHPPSFELLERYLGERLRREGMPRPWALWSVGCSSGEEPYSLAMCAAQVLRGQEREDFFGVTGTDISLHALQRARQANYPARKLEQLEAGLVERYCERQADGSFSVKTILTERVCCARLNVLDLAKAPWSGMDVIFCQNLLIYFRRWRRREILNRLAERLAPGGLLVIGVGEVVDWSHPELEPVADERVL | failed
MVLSEIFRGNNEVREAARAGVQIDTVSVASASDAASAADGSGKITGAIRPSAVAGSFYPADRTALKQLINQQLDYGRKLLQQLEPTLPAGVPRAVIVPHAGYIYSGTAAALAYALLERGRGSVTRAVIVGPTHRVAVRGVACSTAAAFETPLGTVPVDIAAERKALGLSVNEPLRSGTHARPGAPAPAMIVNAPTHAQEHAVEVQIPFLQTVLGPDLTIVPLNAGDATPQEVGDVLRALWGGPETVIVISSDLSHYHPHEVARALDDQTIADIAALHLPIHPRRACGAYPINGLLDVLKGRKDMRLFELGCSTSGDDGVVALAGQPRPAMRDADEPVVGYVSFAAWESKPEADALAGADDLGTSGTPSHGEVLLKLARAAIRERLHIEHPTAADSTASILAANPWLNEPGACFVTLTEGGRLRGCIGSLVAHRSLGKDVAEHAVDAATRDPRFTPVTAAEYPLLNVEVSVLGEPEPITVNSCDADSRGTGSKTATLASLQSGPQTDAVKRDGSNVERPVRSRTELEEVLRPGKDGLILADRRGRSATFLPQVWDELPDPHDFVAHLLAKAGIRPSYDWTDSEIDCQRYEVTAYAEH | failed
MEGFSPPINTAQVDAKTKLDEKVDYSNLPCPVLYEELNREATMALKPELFEGFRLDYNKSLNQKFFLSHSILMGPTEVPNPTPSSEIIKIPTANYDFGAGFIDPKLYLIGRITTDGRLNARAKFDLTDNFSVKANALLTDEEDKSQGHLVIDYKGSDYRTQLQLGNNSVYAANYIQHVTPHLSLGGEAFWLGQQLMSGVGYAARYETDKTVASGQIASTGVAVMNYVHKVSEKLSFATDFIYNYLSRDVTASVGYDLITRQSRLRGKVDSNGVVAAYLEEQLPIGLRFLLSAEVDHVKKDYKFGFGVNAF | failed
MTDNLINNGTKTTPEAEILTAASNSRSSDAQHDDTAPAGEVLLDIDPDELLSDPAEKEETSAQDIALPDHVAGSGSLDRLIDQARDYAEAATAENTNKAYKADWKHFTGWCRRKGVDALVPSPAVIGLYISDCAKPQDGSPALSVSTIERRLSGLAANYRQRGLALDMKDRHIASVWAGIKRHHAKPPTQKEAVLIEDVLAMVGALSYSLRDLRDRAILLIGYAGGLRRTEIVGLDVGKDESDDGRGWVEILEGGAVLHIKGKTGWREVEIGRGSADQTCPVYALEQWLHYAKIDVGSVFRQVFRDNSRIGPERLSDKHVVRLIKRLVLETGVGLDRPALSKLSDEERAKFFAGHSLRAGLASGAEVDERYVQKQLGHASAEMTRRYQRRRDRFRVNLTKAVGL | failed
YANEEKGLEIAQERKARDEGWGDSIATMEMILKNAQGESSTRLMRLKSLEVEGDGDKGLTIFDQPRDVTGTAFLNHSHTIGADDQWLYLPALKRVKRISSRNKSGPFMGSEFAYEDLSSFEIEKYRFNHLKDEKFNGQDVFVLEQIPTDKNSGYTKQVVWLDKAHYRPLKVEFYDRKGALLKTLTFANYKQYLDKYWRAHTMAMTNHQTGKSTELNTSDLRFQTGLEENDFNKNVLKRVK | failed
MIKSILDYLLTLHPVLLGLLGSTFTWFTTAFGAAAVFFFRKVDNKIMDAMLGFSAGIMIAASFFSLIQPAIERAEELGYITWVPAVFGFLVGAFFIYIVDVFVPDLDKLTFIDEDLTKHGKKDFLLFTAVTLHNFPEGLAVGVAFGALASNPDIQTLVGAMLLTLGIGIQNIPEGAAISLPLRRGNVALAKCFNYGQMSGLVEIVGGLMGAYAVYSFTRILPFALAFSAGAMIYVSIEQLIPEAKRKDIDNKVPSIFGVIGFTLMMFLDVSLG | failed
MRSTKTNAMEAIMKKFMGIATAAVFGLGIFTTSAKAETIVTTDVLNVRENPTTESKVVGKLLDGYKVNVLHTENGWSKVQLNSGKEAFISADYTKDTYYVTANVLNVRAGANTDSEILGKLKKDDVIETTHQVQNDWIQFEYNGKTAYVHVPYLTGKAPVKVQPVAKVEKTTTVQDTAKVREAAKAQEVAETQAKAKAVEATKAREAAEAQAEVKAQEAAKAREAAKAQEAAKAQADAEAQAEVKAQEAAKAREAAKAQADAEAQAAAKAQEAAKAREAAKAQEAAEAREAAKAQEAREAAKAQEAAKAQKSATQQPVAKETETSTPSSSRELRVVATAYTADPLENGYKAGDQVKSALGHNLTANPNMKLIAVDPSVIPLGSKVWVEGYGVAIAGDTGGAIKGNKIDVLMPDKGSSSSWGRKTVTVKVLNLEHHHHHH | not failed
GSALIDEIRSLGESLQGYNVRHINSTIIGGGVAEILSSLVPLMEDVGLTVNWEVLAGTTEFFHTTKLFHNGMHGQPVNITGEMLENYLAIAQKNQNLLDGDADLVVIHDQQPLGLTAFRGRTRGRWLWYCHVDPRYAVPEVWYFLAPMVATCDAAVFHLP | failed
MKLKSLLLRYYPPGIMLEYEKHGELKTKSIDLLDLGPSTDVSALVEEIQKAEPLLTASRTEQVKLLIQRLQEKLGQNSNHTFYLFKVLKAHILPLTNVALNKSGSCFITGSYDRTCKLWDSASGEELNTLEGHRNVVYAIAFNNPYGDKIATGSFDKTCKLWSVETGKCYHTFRGHTAEIVCLSFNPQSTLVATGSMDTTAKLWDIQNGEEVYTLRGHSAEIISLSFNTSGDRIITGSFDHTVVVWDADTGRKVNILIGHCAEISSASFNWDCSLILTGSMDKTCKLWDATNGKCVATLTGHDDEILDSCFDYTGKLIATASADDGVSLCRPGRSAVARSWLTATCASQVQAILLPQPPELCHVLGNHV | failed
